Source: IntAct's records for PubMed 24929360

B1: Catenin delta-1 (Mus musculus), P30999 (parent)
chain: MDDSEVESTASILASVKEQEAQFEKLTRALEEERRHVSAQLERVRVSPQDANSLMANGTLTRRHQNGRFVGDADLERQKFSDLKLNGPQDHNHLLYSTIPRMQEPGQIVETYTEEDPEGAMSVVSVETTDDGTTRRTETTVKKVVKTMTTRTVQPVPMGPDGLPVDASAVSNNYIQTLGRDFRKNGNGGPGPYVGQAGTATLPRNFHYPPDGYGRHYEDGYPGGSDNYGSLSRVTRIEERYRPSMEGYRAPSRQDVYGPQPQVRVGGSSVDLHRFHPEPYGLEDDQRSMGYDDLDYGMMSDYGTARRTGTPSDPRRRLRSYEDMIGEEVPPDQYYWAPLAQHERGSLASLDSLRKGMPPPSNWRQPELPEVIAMLGFRLDAVKSNAAAYLQHLCYRNDKVKTDVRKLKGIPILVGLLDHPKKEVHLGACGALKNISFGRDQDNKIAIKNCDGVPALVRLLRKARDMDLTEVITGTLWNLSSHDSIKMEIVDHALHALTDEVIIPHSGWEREPNEDCKPRHIEWESVLTNTAGCLRNVSSERSEARRKLRECDGLVDALIFIVQAEIGQKDSDSKLVENCVCLLRNLSYQVHREIPQAERYQEALPTVANSTGPHAASCFGAKKGKDEWFSRGKKPTEDPANDTVDFPKRTSPARGYELLFQPEVVRIYISLLKESKTPAILEASAGAIQNLCAGRWTYGRYIRSALRQEKALSAIAELLTSEHERVVKAASGALRNLAVDARNKELIGKHAIPNLVKNLPGGQQNSSWNFSEDTVVSILNTINEVIAENLEAAKKLRETQGIEKLVLINKSGNRSEKEVRAAALVLQTIWGYKELRKPLEKEGWKKSDFQVNLNNASRSQSSHSYDDSTLPLIDRNQKSDKKPDREEIPMSNMGSNTKSLDNNYSTLNERGDHNRTLDRSGDLGDMEPLKGAPLMQKI

Variants of: B1
Conditions: with cadh2_mouse Cdh2, P15116
Sequence of cadh2_mouse Cdh2, P15116 (P15116 whole entry): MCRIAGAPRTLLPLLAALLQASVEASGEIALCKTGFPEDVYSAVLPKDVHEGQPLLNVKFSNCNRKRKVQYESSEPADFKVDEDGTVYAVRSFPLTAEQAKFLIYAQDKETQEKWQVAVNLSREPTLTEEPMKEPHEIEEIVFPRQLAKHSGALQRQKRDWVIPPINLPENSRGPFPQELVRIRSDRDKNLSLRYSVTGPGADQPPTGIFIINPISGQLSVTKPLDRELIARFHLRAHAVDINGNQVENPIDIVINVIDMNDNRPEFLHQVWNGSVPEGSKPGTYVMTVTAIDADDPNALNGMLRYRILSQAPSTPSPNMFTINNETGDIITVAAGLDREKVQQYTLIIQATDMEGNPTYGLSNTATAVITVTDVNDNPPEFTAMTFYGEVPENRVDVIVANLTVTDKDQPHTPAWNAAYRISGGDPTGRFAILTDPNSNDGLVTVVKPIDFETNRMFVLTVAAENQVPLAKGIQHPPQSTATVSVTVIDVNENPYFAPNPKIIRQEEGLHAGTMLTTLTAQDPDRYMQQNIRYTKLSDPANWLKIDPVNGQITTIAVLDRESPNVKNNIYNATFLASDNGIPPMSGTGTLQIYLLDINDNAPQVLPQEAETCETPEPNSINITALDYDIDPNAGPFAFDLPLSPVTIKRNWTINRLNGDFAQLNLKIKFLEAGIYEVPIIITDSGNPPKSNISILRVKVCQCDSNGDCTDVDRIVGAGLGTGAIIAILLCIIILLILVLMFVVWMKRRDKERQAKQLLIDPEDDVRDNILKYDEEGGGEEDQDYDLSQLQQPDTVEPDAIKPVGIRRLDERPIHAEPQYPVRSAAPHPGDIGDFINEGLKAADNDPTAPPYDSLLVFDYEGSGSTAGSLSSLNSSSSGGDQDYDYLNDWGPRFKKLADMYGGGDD

| effect of a mutation on the interaction | Variant |
| --- | --- |
| increasing interaction strength | T310A |
